Paper PMC12415261 (Proceedings of the National Academy of Sciences of the …, 2025)

B1: ALK3-Fc (homodimeric Fc-fusion of ALK3-ECD) [human] / Recombinant human BMP6, mammalian expressed (glycosylated) [modified: N-linked glycosylation at Asn454 (prehelical loop); N-linked glycosylation at Asn454 (prehelical loop)] [human] (parent complex)
chain 1: QNLDSMLHGTGMKSDSDQKKSENGVTLAPEDTLPFLKCYCSGHCPDDAINNTCITNGHCFAIIEEDDQGETTLASGCMKYEGSDFQCKDSPKAQLRRTIECCRTNLCNQYLQPTLPPVVIGPFFDGSIR
chain 2: SASSRRRQQSRNRSTQSQDVARVSSASDYNSSELKTACRKHELYVSFQDLGWQDWIIAPKGYAANYCDGECSFPLNAHMNATNHAIVQTLVHLMNPEYVPKPCCAPTKLNAISVLYFDDNSNVILKKYRNMVVRACGCH

Variants of: B1
Assay: SPR; top curve of the analyte series, read at the end of association (about 300 s); analyte concentrations not given; receptor-Fc captured by anti-human antibody; read off a plot

Variant | response [RLU]
chain 1 QNLDSMLHGTGMKSDSDQKKSENGVTLAPEDTLPFLKCYCSGHCPGDAINNTCITNGHCFAIIEEDDQGETTLASGCMKYEGSDFQCKDSPKAQLRRTIECCRTNLCNQYLQPTLPPVVIGPFFDGSIR | ~9.5
